Data published in paper PMC10123104, “YbiB: a novel interactor of the GTPase ObgE” (Nucleic Acids Research, 2023).
Substitutions are numbered along the chain they refer to. Names and notes keep the numbering of the source. Values joined by “and” are separate entries in the source; they are usually repeats but may differ in a detail not shown here. Identical values can stand only once.

B1: YbiB Arg92Glu, N-terminally His6-tagged (natural protein, E. coli, UniProt P30177 1-320, looked up)
chain: MDYRKIIKEIGRGKNHARDLDRDTARGLYAHMLNGEVPDLELGGVLIALRIKGEGEAEMLGFYEAMQNHTIKLTPPAGKPMPIVIPSYNGAEKQANLTPLLAILLHKLGFPVVVHGVSEDPTRVLTETIFELMGITPTLHGGQAQAKLDEHQPVFMPVGAFCPPLEKQLAMRWRMGVRNSAHTLAKLATPFAEGEALRLSSVSHPEYIGRVAKFFSDIGGRALLMHGTEGEVYANPQRCPQINLIDREGMRVLYEKQDTAGSELLPQAKDPETTAQWIERCLAGSEPIPESLKIQMACCLVATGEAATISDGLARVNQAF
notes: no measurement of its oligomeric state is reported; also called YbiB R92E; pET28a-ybiBR92E; source: E. coli BL21 (DE3) pLysS, purified (HisTrap FF, Superdex 200); not shown: His6, N-terminal, kept
B2: YbiB (E. coli TrpD2 protein), N-terminally His6-tagged, wild type (natural protein, UniProt P30177 1-320, looked up)
chain: B1 chain with E92R
notes: YbiB, TrpD2 family protein of Escherichia coli, open reading frame amplified from BW25113 genomic DNA; cloned in pET28a (NheI/EcoRI) behind His6 and a thrombin site; its numbers there are shifted by 1; No thrombin cleavage is described; also called YbiB WT; YbiB dimer; source: E. coli BL21 (DE3) pLysS, purified (HisTrap FF, Superdex 200); not shown: His6, N-terminal, kept
B3: full-length E. coli YbiB protein, N-terminally His6-tagged (natural protein, UniProt P30177 1-320, looked up)
chain: B1 chain with E92R
notes: homodimer; No cleavage of the His6-tag is told; the pull-down names the tag on the protein; also called YbiB WT; TrpD2 protein YbiB; source: E. coli BL21 (DE3) pLysS, purified (HisTrap, SEC); not shown: His6, N-terminal, kept
B4: ObgE C-terminal peptide4 (residues 361-380 of ObgE) (peptide)
peptide: LEEIAEEDDEDWDDDWDEDD
notes: residues 375-380 (DWDEDD) are resolved in the crystal structure; also called peptide4-WW; SBL-OBGE-03; source: synthetic peptide (Fmoc SPPS, HPLC purified)
B5: peptide4-AA (variant of ObgE peptide4 with both Trp residues substituted by Ala) (peptide, UniProt P42641 361-380, looked up)
peptide: LEEIAEEDDEDADDDADEDD
notes: source: synthetic peptide (Fmoc SPPS, HPLC purified)
B6: YbiB Arg123Glu, N-terminally His6-tagged (natural protein, E. coli, UniProt P30177 1-320, looked up)
chain: B1 chain with E92R, R123E
notes: no measurement of its oligomeric state is reported; also called YbiB R123E; pET28a-ybiBR123E; source: E. coli BL21 (DE3) pLysS, purified (HisTrap FF, Superdex 200); not shown: His6, N-terminal, kept
B7: ObgE C-terminal peptide4-AA (peptide)
peptide: LEEIAEEDDEDADDDADEDD
notes: free termini (H-...-OH); also called SBL-OBGE-06; source: synthetic peptide (in-house Fmoc SPPS, HPLC purified)

Experiments:
[1] = target: T1, ObgE (E. coli Obg GTPase), N-terminally His6-tagged (E. coli, UniProt P42641 1-390); test: ITC; MicroCal iTC200, 25°C, 20 mM HEPES pH 7.5, 150 mM NaCl, 5 mM MgCl2, 1 mM β-mercaptoethanol; ObgE or ObgE-derived peptide in the sample cell (50-75 µM), YbiB (WT or mutant) in the syringe (500 µM-1.4 mM); 'ligand in cell' function; biphasic isotherms fitted on a 'two sets of sites' model; subunit concentrations; parameters of each individual repeat; conditions: both partners purified
T1 construct: GTPase ObgE (Obg) of Escherichia coli, 390 residues; also called pET28a-obgE; source: E. coli BL21 (DE3) pLysS, purified (HisTrap FF, alkaline phosphatase treatment, Superdex 75), nucleotide-free; not shown: His6, N-terminal, kept

[2] = target: B7; test: as above; conditions: both partners purified
[3] = target: the molecule itself; test: SEC-MALS; Superdex 200 5/150 GL increase; ObgE and YbiB alone at 1.5 mg/ml; YbiB and ObgE mixed 1:3 (20 and 60 μM); 20 mM HEPES pH 7.5, 150 mM NaCl, 5 mM MgCl2, 5% glycerol, 2 mM DTT
[4] = target: T2, N-terminally His6-tagged ObgE protein (Escherichia coli Obg) (E. coli, UniProt P42641 1-390); test: as above; conditions: both partners purified
T2 construct: GTPase ObgE of Escherichia coli, whole protein, ORF in pET28a; monomer by SEC-MALS; nucleotide-free after alkaline phosphatase treatment; also called full-length ObgE; not shown: His6, N-terminal, kept

[5] = target: T2, N-terminally His6-tagged ObgE protein …; test: ITC; YbiB in the syringe (500 μM to 1.4 mM) titrated into ObgE constructs or ObgE-derived peptides in the cell (50-75 μM); 25°C; 20 mM HEPES pH 7.5, 150 mM NaCl, 5 mM MgCl2, 1 mM β-mercaptoethanol; 'two sets of sites' model with 'ligand in cell' for biphasic isotherms; subunit concentrations; conditions: both partners purified
[6] = target: T2, N-terminally His6-tagged ObgE protein …; test: SEC-SAXS; pre-formed YbiB-ObgE complex (mixed 1:3, isolated on Superdex 200, 7.6 mg/ml); 20 mM HEPES pH 7.5, 150 mM NaCl, 5 mM MgCl2, 2 mM DTT, 5% glycerol; molar mass by Bayesian inference; conditions: both partners purified
[7] = target: B3; test: ITC; YbiB in the syringe (500 μM to 1.4 mM) titrated into ObgE constructs or ObgE-derived peptides in the cell (50-75 μM); 25°C; 20 mM HEPES pH 7.5, 150 mM NaCl, 5 mM MgCl2, 1 mM β-mercaptoethanol; 'two sets of sites' model with 'ligand in cell' for biphasic isotherms; subunit concentrations; conditions: both partners purified
[8] = target: B2; test: ITC; MicroCal iTC200, 25°C, 20 mM HEPES pH 7.5, 150 mM NaCl, 5 mM MgCl2, 1 mM β-mercaptoethanol; ObgE or ObgE-derived peptide in the sample cell (50-75 µM), YbiB (WT or mutant) in the syringe (500 µM-1.4 mM); 'ligand in cell' function; biphasic isotherms fitted on a 'two sets of sites' model; subunit concentrations; parameters of each individual repeat; conditions: both partners purified

T2 sequence (P42641 whole entry): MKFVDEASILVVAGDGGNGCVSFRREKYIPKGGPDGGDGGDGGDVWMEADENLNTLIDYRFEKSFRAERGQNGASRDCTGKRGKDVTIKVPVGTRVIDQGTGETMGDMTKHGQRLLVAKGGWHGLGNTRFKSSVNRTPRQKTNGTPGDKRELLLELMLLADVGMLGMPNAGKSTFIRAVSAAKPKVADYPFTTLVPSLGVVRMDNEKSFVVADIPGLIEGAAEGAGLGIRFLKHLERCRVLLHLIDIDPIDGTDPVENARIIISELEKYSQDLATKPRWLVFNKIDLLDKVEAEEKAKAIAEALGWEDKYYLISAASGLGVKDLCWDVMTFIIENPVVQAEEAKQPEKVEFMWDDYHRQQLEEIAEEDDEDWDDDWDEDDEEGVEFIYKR
T1 sequence (P42641 whole entry): as above

Binder: B1
stoichiometry N [1]: 0.71 and 0.94 and 1.29

Binder: B2
stoichiometry N [2]: 0.66 and 0.632 and 0.64

Binder: B3
stoichiometry N [3]: 2
stoichiometry N [4]: ~2 ObgE per YbiB dimer
KD of the first (high-affinity) binding event, two sets of sites [5]: 0.022 ± 0.001 µM
KD of the second (low-affinity) binding event, two sets of sites [5]: 5 ± 1 µM
stoichiometry N [6]: 2 ObgE per YbiB dimer

Binder: B4
binding result [7]: binds

Binder: B5
Kd [7]: ~10 µM

Binder: B6
Kd [1]: 5 µM and 4 µM and 10 µM
stoichiometry N [1]: 1.14 and 0.99

Binder: B7
Kd [8]: 10 µM and 15 µM
